Consider one molecule from patent US20230346960A1.

No end group written: not given here.

The target in this experiment is collagen IV/laminin (2% reduced growth factor Matrigel, Corning #354230). Put plainly: plate binding assay, biotinylated molecule on Matrigel-coated plate, streptavidin-HRP, absorbance 450 nm.

B1: DS-SILY4 (biotinylated; dermatan sulfate backbone with 4 SILY peptide substitutions per DS) (peptide)
peptide: RRANAALKAGELYKSILYGSG
modifications: not fully specified (C-terminus); also: about 4 peptides per dermatan sulfate, one equivalent N-terminally biotinylated SILY-hydrazide also conjugated
On to B1, for which the binding capacity is 1.1 AU.
